According to patent publication US20260193293A1, “PEPTIDES CAPABLE OF INHIBITING PROTEIN-PROTEIN INTERACTIONS AT GABAB1A SUBUNIT AND USES THEREOF” (UNIVERSITY OF COPENHAGEN, priority 2022, published 2026):
Values belong to the binder of their own block, whether it stands above or below them. Non-standard residues stand in square brackets, D forms with d. 2Nal = N[C@@H](Cc1ccc2ccccc2c1)C(=O)O

Tests used:
[1] = molecular target: Sushi domains (SD1/2) protein of GABAB1a (GB1a); experiment: FP competition vs TAMRA AJAP-1probe
Sequence of Sushi domains (SD1/2) protein of GABAB1a (GB1a) (Q9Z0U4 29-158): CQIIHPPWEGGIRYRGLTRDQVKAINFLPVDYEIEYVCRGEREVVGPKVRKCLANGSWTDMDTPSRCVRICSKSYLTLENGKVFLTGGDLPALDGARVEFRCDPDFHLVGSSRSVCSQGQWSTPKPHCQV

[2] = molecular target: Sushi domains (SD1/2) protein of the GABAB1a (GB1a) subunit, recombinant; experiment: FP competition
Sequence of Sushi domains (SD1/2) protein of the GABAB1a (GB1a) subunit, recombinant (Q9Z0U4 29-158): as above

B3: … (SEQ ID NO: 341) (peptide)
peptide: Ac-DAIVWGPTVSRED-NH2
Ki [1]: 715 nM

B4: … (peptide)
peptide: Ac-PWAIVWGPTSSRED-NH2
Ki [1]: 383 nM

B7: … (peptide)
peptide: Ac-PFAIVWGPTVSRED-NH2
Ki [1]: 792 nM

B8: … (peptide)
peptide: Ac-ETEFIAWHPTGDED-NH2
Ki [1]: 240 nM

B13: … (peptide)
peptide: Ac-VWAIVWGPTVSRED-NH2
Ki [1]: 412 nM

B14: … (peptide)
peptide: Ac-PWFIVWGPTVSDED-NH2
Ki [1]: 192 nM

B15: R4-21 (Ac-RRRREDDD(2Nala)…-NH2) (peptide)
peptide: Ac-RRRREDDD[2Nal]IDWGPTSDDD-NH2
SMILES: CC[C@H](C)[C@H](NC(=O)[C@H](Cc1ccc2ccccc2c1)NC(=O)[C@H](CC(=O)O)NC(=O)[C@H](CC(=O)O)NC(=O)[C@H](CC(=O)O)NC(=O)[C@H](CCC(=O)O)NC(=O)[C@H](CCCNC(=N)N)NC(=O)[C@H](CCCNC(=N)N)NC(=O)[C@H](CCCNC(=N)N)NC(=O)[C@H](CCCNC(=N)N)NC(C)=O)C(=O)N[C@@H](CC(=O)O)C(=O)N[C@@H](Cc1c[nH]c2ccccc12)C(=O)NCC(=O)N1CCC[C@H]1C(=O)N[C@H](C(=O)N[C@@H](CO)C(=O)N[C@@H](CC(=O)O)C(=O)N[C@@H](CC(=O)O)C(=O)N[C@@H](CC(=O)O)C(N)=O)[C@@H](C)O
Ki [2]: 13 nM

B16: … (peptide)
peptide: Ac-PHAIVWGPTVSRED-NH2
Ki [1]: 1500 nM

B17: … (peptide)
peptide: Ac-PWYIVWGPTVSRED-NH2
Ki [1]: 336 nM

B24: … (SEQ ID NO: 342) (peptide)
peptide: Ac-DAIVWGPTVSRED-NH2
Ki [1]: 208 nM

B28: … (peptide)
peptide: Ac-ETEFIAWGPTGHED-NH2
Ki [1]: 60 nM

B32: … (peptide)
peptide: Ac-ETEFIAWYPTGDED-NH2
Ki [1]: 199 nM

B34: … (peptide)
peptide: Ac-RTEFIAWGPTGDED-NH2
Ki [1]: 87 nM

B35: … (peptide)
peptide: Ac-PWVIVWGPTVSRED-NH2
Ki [1]: 302 nM

B37: … (peptide)
peptide: Ac-PWFIVWGPTVSRED-NH2
Ki [1]: 461 nM

B39: … (peptide)
peptide: Ac-PSAIVWGPTVSRED-NH2
Ki [1]: 906 nM

B40: … (peptide)
peptide: Ac-NTEFIAWGPTGDED-NH2
Ki [1]: 62 nM

B41: … (peptide)
peptide: Ac-DWAIVWGPTVSRED-NH2
Ki [1]: 338 nM

B44: … (peptide)
peptide: Ac-PDAIVWGPTVSRED-NH2
Ki [1]: 673 nM

B45: … (peptide)
peptide: Ac-PWAIDWGPTVSRED-NH2
Ki [1]: 1300 nM

Results, then the binder that gave them:

Ki [1]: 27 nM
B1: … (peptide)
peptide: Ac-ETEFIAWGPTGDDD-NH2

Ki [1]: 41 nM
B2: … (peptide)
peptide: Ac-ETEFIAWGPTGDFD-NH2

Ki [1]: 54 nM
B5: … (peptide)
peptide: Ac-ETEFIAWGPTGDRD-NH2

Ki [1]: 43 nM
B6: … (peptide)
peptide: Ac-ETEFIAWGPTGDEN-NH2

Ki [1]: 9 nM
B9: peptide 26 (peptide)
peptide: Ac-ETEFIDWGPTGDED-NH2

Ki [1]: 32 nM
B10: … (peptide)
peptide: Ac-ETEFIAWGPSGDED-NH2

Ki [1]: 54 nM
B11: … (peptide)
peptide: Ac-ETEFIAWGPTGDWD-NH2

Ki [1]: 54 nM
B12: … (peptide)
peptide: Ac-ETEFIAWGPTGDEW-NH2

Ki [1]: 38 nM
B18: … (peptide)
peptide: Ac-ETEFIAWGPHGDED-NH2

Ki [1]: 30 nM
B19: … (peptide)
peptide: Ac-ETEFIAWGPTHDED-NH2

Ki [1]: 26 nM
B20: … (peptide)
peptide: Ac-ETDFIAWGPTGDED-NH2

Ki [1]: 40 nM
B21: … (peptide)
peptide: Ac-ETEFIAWGPFGDED-NH2

Ki [1]: 41 nM
B22: … (peptide)
peptide: Ac-ETEFIAWGPTGDEP-NH2

Ki [1]: 32 nM
B23: … (peptide)
peptide: Ac-ETEFIAWGPTRDED-NH2

Ki [1]: 34 nM
B25: … (peptide)
peptide: Ac-ETSFIAWGPTGDED-NH2

Ki [1]: 35 nM
B26: … (peptide)
peptide: Ac-ETEWIAWGPTGDED-NH2

Ki [1]: 34 nM
B27: … (peptide)
peptide: Ac-ETEFIAWGPTGDPD-NH2

Ki [1]: 18 nM
B29: … (peptide)
peptide: Ac-ETEYIAWGPTGDED-NH2

Ki [1]: 48 nM
B30: … (peptide)
peptide: Ac-ETEFIAWGPTGDEF-NH2

Ki [1]: 37 nM
B31: … (peptide)
peptide: Ac-ETEFIAWGPTGDEQ-NH2

Ki [1]: 30 nM
B33: … (peptide)
peptide: Ac-ETEFIVWGPTGDED-NH2

Ki [1]: 28 nM
B36: … (peptide)
peptide: Ac-EVEFIAWGPTGDED-NH2

Ki [1]: 41 nM
B38: … (peptide)
peptide: Ac-ETEFIAWGPTGYED-NH2

Ki [1]: 40 nM
B42: … (peptide)
peptide: Ac-ETEFIAWGPTGDYD-NH2

Ki [1]: 24 nM
B43: … (peptide)
peptide: Ac-ETEFIHWGPTGDED-NH2

Ki [1]: 40 nM
B46: … (peptide)
peptide: Ac-ETEFIAWGPTGDEV-NH2
